US20210052718A1

Columns and labels:
[1] = target: Split RSV37° C. (standard preparation of inactivated split RSV vaccine) (respiratory syncytial virus) (UniProt P03420); assay: ELISA on coated virus preparation; grade +++++ = OD 2-2.5
[2] = target: FI-RSV (post F): formalin-inactivated whole RSV (respiratory syncytial virus) (UniProt P03420); assay: ELISA on coated virus preparation; grade +++ = OD 1-1.5
[3] = target: Split RSV4° C. (inactivated at low temperature (4° C.) and split) (respiratory syncytial virus) (UniProt P03420); assay: ELISA on coated virus preparation; grade ++++++ = OD >2.5
Sequence of Split RSV4° C. (inactivated at low temperature (4° C.) and split) (respiratory syncytial virus) (P03420 26-574): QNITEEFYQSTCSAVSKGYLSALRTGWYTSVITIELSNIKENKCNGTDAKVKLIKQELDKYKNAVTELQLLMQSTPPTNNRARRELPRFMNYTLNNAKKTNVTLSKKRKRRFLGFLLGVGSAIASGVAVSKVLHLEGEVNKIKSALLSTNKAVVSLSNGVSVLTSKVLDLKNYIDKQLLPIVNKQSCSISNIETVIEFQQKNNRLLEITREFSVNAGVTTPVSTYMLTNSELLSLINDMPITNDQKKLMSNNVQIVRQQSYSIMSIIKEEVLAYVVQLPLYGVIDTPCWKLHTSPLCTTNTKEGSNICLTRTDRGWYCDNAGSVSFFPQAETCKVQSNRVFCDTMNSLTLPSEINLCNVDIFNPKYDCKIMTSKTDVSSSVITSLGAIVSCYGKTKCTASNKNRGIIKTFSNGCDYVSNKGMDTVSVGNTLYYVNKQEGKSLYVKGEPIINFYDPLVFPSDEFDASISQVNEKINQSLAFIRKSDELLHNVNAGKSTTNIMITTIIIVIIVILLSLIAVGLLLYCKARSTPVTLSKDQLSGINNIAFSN

[4] = target: Live RSV (A2 strain) (respiratory syncytial virus A2 strain) (UniProt P03420); assay: ELISA on coated virus; grade +++ = OD 1-1.5
Sequence of Live RSV (A2 strain) (respiratory syncytial virus A2 strain) (P03420 26-574): as above

Sequence of Split RSV37° C. (standard preparation of inactivated split RSV vaccine) (respiratory syncytial virus) (P03420 26-574): as above
Sequence of UniProt P03420 (P03420 26-574): as above

Question: With palivizumab (antibody) as the substance, how does the ELISA OD [1] read?
Answer: 2 to 2.5 od

Question: And the ELISA OD [2]?
Answer: 1 to 1.5 od

Question: What about the ELISA OD [3] of the same substance?
Answer: > 2.5 od

Question: And the ELISA OD [4]?
Answer: 1 to 1.5 od
